# Residue numbers refer to the chain shown, from its start. Numbers in names are those of the source.
# B1: H237-MB390/MRAL-k0 (antibody, mouse IgG1, kappa)
# heavy: QVQLQESGPGLVKPSETLSLTCAVSGHSISHDHAWSWVRQPPGEGLEWIGFISYSGITNYNPSLQGRVTISRDNSKNTLYLQMNSLRAEDTAVYYCARSLARTTAMDYWGEGTLVTVSSAKTTPPSVYPLAPGSAAQTNSMVTLGCLVKGYFPEPVTVTWNSGSLSSGVHTFPAVLQSDLYTLSSSVTVPSSTWPSETVTCNVAHPASSTKVDKKIVPRDCGCKPCICEPNEVEDVFIFPPKPKDVLTITLTPKVTCVVVDISKDDPEVQFSWFVDDVEVHTAQTQPREEQFNSTFRSVSELPIMHQDWLNGKEFKCRVNSAAFPAPIEKTISKTKGRPKAPQVYTIPPPKEQMAKDKVSLTCMITDFFPEDITVEWQWNGQPAENYKNTQPIMDTDGSYFVYSKLNVQKSNWEAGNTFTCSVLHEGLHNHHTEKSLSHSPGK
# light: not shown
# notes: mIgG1 with T230E/V231P/P232N/S238E/S239D (EU); template T8; copies: 2 + 2
# B2: H237-MB387/MRAL-k0 (antibody, mouse IgG1, kappa)
# heavy: B1 heavy with P230N, N231Y
# light: not shown
# notes: mIgG1 with T230E/V231N/P232Y/S238E/S239D (EU); template T3; copies: 2 + 2
# B3: H237-MB425/MRAL-k0 (antibody, mouse IgG1, kappa)
# heavy: B1 heavy with E229I, N231A
# light: not shown
# notes: mIgG1 with T230I/V231P/P232A/S238E/S239D (EU); template T7; copies: 2 + 2
# B4: H237-MB389/MRAL-k0 (antibody, mouse IgG1, kappa)
# heavy: B1 heavy with N231A
# light: not shown
# notes: mIgG1 with T230E/V231P/P232A/S238E/S239D (EU); template T6; copies: 2 + 2
# B5: H237-MB397/MRAL-k0 (antibody, mouse IgG1, kappa)
# heavy: B1 heavy with P230T, N231Y
# light: not shown
# notes: mIgG1 with T230E/V231T/P232Y/S238E/S239D (EU); template T4; copies: 2 + 2
# B6: H237-MB382/MRAL-k0 (antibody, mouse IgG1, kappa)
# heavy: B1 heavy with P230D, N231Y
# light: not shown
# notes: mIgG1 with T230E/V231D/P232Y/S238E/S239D (EU); template T2; copies: 2 + 2
# B7: H237-MB432/MRAL-k0 (antibody, mouse IgG1, kappa)
# heavy: B1 heavy with E229Q
# light: not shown
# notes: mIgG1 with T230Q/V231P/P232N/S238E/S239D (EU); template T9; copies: 2 + 2
# B8: H237-MB476/MRAL-k0 (antibody, mouse IgG1, kappa)
# heavy: B1 heavy with E229Q, D235E
# light: not shown
# notes: Template; copies: 2 + 2
# B9: H237-MB531/MRAL-k0 (antibody, mouse IgG1, kappa)
# heavy: B1 heavy with E229Q, D235E, N320D, K330R
# light: not shown
# notes: copies: 2 + 2
# B10: H237-MB533/MRAL-k0 (antibody, mouse IgG1, kappa)
# heavy: B1 heavy with E229Q, D235E, S294L, N320D, A322D
# light: not shown
# notes: copies: 2 + 2
# B11: H237-MB529/MRAL-k0 (antibody, mouse IgG1, kappa)
# heavy: B1 heavy with E229Q, D235E, S294L, K330R
# light: not shown
# notes: copies: 2 + 2
# B12: H237-MB534/MRAL-k0 (antibody, mouse IgG1, kappa)
# heavy: B1 heavy with E229Q, D235E, S294L, N320D, K330R
# light: not shown
# notes: copies: 2 + 2
# B13: H237-MB532/MRAL-k0 (antibody, mouse IgG1, kappa)
# heavy: B1 heavy with E229Q, D235E, A322D, K330R
# light: not shown
# notes: copies: 2 + 2
# B14: H237-MB528/MRAL-k0 (antibody, mouse IgG1, kappa)
# heavy: B1 heavy with E229Q, D235E, S294L, A322D
# light: not shown
# notes: copies: 2 + 2
# B15: H237-MB526/MRAL-k0 (antibody, mouse IgG1, kappa)
# heavy: B1 heavy with E229Q, D235E, S294L
# light: not shown
# notes: copies: 2 + 2
# B16: H237-MB530/MRAL-k0 (antibody, mouse IgG1, kappa)
# heavy: B1 heavy with E229Q, D235E, N320D, A322D
# light: not shown
# notes: copies: 2 + 2
# B17: H237-MB527/MRAL-k0 (antibody, mouse IgG1, kappa)
# heavy: B1 heavy with E229Q, D235E, S294L, N320D
# light: not shown
# notes: also called MG527; copies: 2 + 2
# Biological target: T1, mouse FcγRII extracellular domain with C-terminal His tag (mouse, UniProt P08101 30-210)
# T1 construct: Made on the basis of NCBI NP-034317.1; also called mFcγRII; mFcgRII
# T1 sequence: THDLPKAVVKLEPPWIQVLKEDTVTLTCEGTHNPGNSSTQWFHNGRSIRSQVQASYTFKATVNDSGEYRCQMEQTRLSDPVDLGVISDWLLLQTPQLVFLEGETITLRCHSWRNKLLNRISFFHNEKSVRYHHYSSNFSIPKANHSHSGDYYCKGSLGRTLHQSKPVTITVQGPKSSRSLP
# Assay: SPR Biacore T200
# Experimental: (§1) Each altered antibody was analyzed for its interaction with each Fcγ receptor prepared above using Biacore T100 (GE Healthcare Japan Corp.), Biacore T200 (GE Healthcare Japan Corp.), Biacore A100, or Biacore 4000. The running buffer used was HBS-EP+ (GE Healthcare Japan Corp.). The assay temperature was set to 25° C. The sensor chips used were chips prepared by immobilizing Protein L (ACTIGEN or BioVision) onto Series S Sensor Chip CM5 (GE Healthcare Japan Corp.) or Series S Sensor Chip CM4 (GE Healthcare Japan Corp.) by the amine coupling method.
# (§2) In order to calculate the KD value of each altered antibody for FcγR, kinetic analysis was conducted according to the following method: first, the antibody of interest was captured onto any of these chips and allowed to interact with mFcγR diluted with a running buffer. For the obtained sensorgram, the assay results were globally fit into the 1:1 Langmuir binding model using Biacore Evaluation Software to calculate an association rate constant ka (L/mol/s) and a dissociation rate constant kd (1/s). From these values, the dissociation constant KD (mol/L) was calculated.
row,Binder,Kd
1,B1,0.403 nM
2,B2,0.659 nM
3,B3,1.08 nM
4,B4,0.858 nM
5,B5,0.379 nM
6,B6,0.655 nM
7,B7,0.613 nM

# Biological target: T2, mouse FcγRIII extracellular domain with C-terminal His tag (mouse, UniProt P08508 31-215)
# T2 construct: Made on the basis of NCBI NP-034318.2; also called mFcγRIII; mFcgRIII
# T2 chain: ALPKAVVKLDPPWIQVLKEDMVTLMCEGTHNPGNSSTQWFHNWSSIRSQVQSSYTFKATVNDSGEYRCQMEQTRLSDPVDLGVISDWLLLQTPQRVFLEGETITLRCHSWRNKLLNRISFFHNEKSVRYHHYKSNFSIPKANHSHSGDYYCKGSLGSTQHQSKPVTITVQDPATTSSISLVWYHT
# Assay: SPR Biacore T200
# Experimental: as §1, §2
row,Binder,Kd
1,B1,23.7 nM
2,B2,16.9 nM
3,B3,51 nM
4,B4,40.6 nM
5,B5,14.6 nM
6,B6,23 nM
7,B7,26.4 nM

# Biological target: T3, mouse FcγRII extracellular domain, C-terminally His-tagged (mouse, UniProt P08101 30-210)
# T3 construct: the whole entry is named; also called mFcγRII; mFcgRII
# T3 sequence: T1 sequence
# Assay: SPR Biacore T200, KD ratio
# Description: (§3) The antibody H chain variable region used was the variable region H237 (SEQ ID NO: 1) of the H chain VH3-IgG1 of the anti-IL-6 receptor antibody Fv4-IgG1 described in WO2009/125825. The antibody L chain commonly used was the L chain MRAL-k0 (SEQ ID NO: 2) of the anti-IL-6 receptor antibody tocilizumab. H237-MB476/MRAL-k0 and H237-MB515/MRAL-k0 were used as templates to introduce new alterations. These variants were expressed and purified by the method of Reference Example 1 and evaluated for their binding to mFcγRII and mFcγRIII by the method of Reference Example 2 using Biacore T200.
# as §1, §2
Binder,relative mFcγRII-binding activity (mIgG1 = 1),relative mFcγRII-binding activity (H237-mIgG1/MRAL-k0 = 1),relative mFcγRII-binding activity (template H237-MB476/MRAL-k0 = 1)
B8,261 fold,–,–
B9,229 fold,–,–
B10,394 fold,–,–
B11,282 fold,–,–
B12,421 fold,–,–
B13,329 fold,–,–
B14,375 fold,–,–
B15,232 fold,–,–
B16,623 fold,≥ 350 fold,≥ 1.4 fold
B17,273 fold,–,–

# Biological target: T4, mouse FcγRIII extracellular domain, C-terminally His-tagged (mouse, UniProt P08508 31-215)
# T4 construct: the whole entry is named; also called mFcγRIII; mFcgRIII
# T4 chain: T2 chain
# Assay: SPR Biacore T200, KD ratio
# Description: as §3, §1, §2
row,Binder,relative mFcγRIII-binding activity (mIgG1 = 1)
1,B8,2.6 fold
2,B9,3.3 fold
3,B10,7.2 fold
4,B11,5.9 fold
5,B12,33.8 fold
6,B13,6.2 fold
7,B14,14.6 fold
8,B15,8.5 fold
9,B16,8 fold
10,B17,5.5 fold

# Biological target: T1, mouse FcγRII extracellular domain with …
# Assay: SPR Biacore T200; KD mFcγRIII / KD mFcγRII
Binder,I/A (mFcγRII selectivity),relative I/A (mFcγRII selectivity) (mIgG1 = 1)
B1,59,44
B2,25.6,19.1
B3,–,35.2
B4,47.3,35.3
B5,38.7,28.9
B6,35.1,26.2
B7,43.1,32.2

# Biological target: T1, mouse FcγRII extracellular domain with …
# Assay: SPR Biacore T200
# Remark: another data set of the same source
Binder,Kd,relative mFcγRII-binding activity (mIgG1 = 1)
B1,0.403 nM,522
B2,0.659 nM,319
B3,–,194
B4,0.858 nM,245
B5,0.379 nM,555
B6,0.655 nM,321
B7,0.613 nM,343

# Biological target: T2, mouse FcγRIII extracellular domain with …
# Assay: SPR Biacore T200
# Remark: another data set of the same source
Binder,Kd,relative mFcγRIII-binding activity (mIgG1 = 1)
B1,23.7 nM,11.9
B2,16.9 nM,16.7
B3,–,5.5
B4,40.6 nM,7
B5,14.6 nM,19.3
B6,23 nM,12.3
B7,26.4 nM,10.7

# Biological target: T1, mouse FcγRII extracellular domain with …
# Assay: SPR Biacore T200
# Remark: another data set of the same source
row,Binder,relative mFcγRII-binding activity (mIgG1 = 1)
1,B1,522
2,B2,319
3,B3,194
4,B4,245
5,B5,555
6,B6,321
7,B7,343

# Biological target: T2, mouse FcγRIII extracellular domain with …
# Assay: SPR Biacore T200
# Remark: another data set of the same source
row,Binder,relative mFcγRIII-binding activity (mIgG1 = 1)
1,B1,11.9
2,B2,16.7
3,B3,5.5
4,B4,7
5,B5,19.3
6,B6,12.3
7,B7,10.7

# Biological target: T3, mouse FcγRII extracellular domain, …
# Assay: SPR Biacore T200, KD ratio, template MB476
# Description: as §3, §1, §2
row,Binder,relative mFcγRII-binding activity (template = 1)
1,B8,1 fold
2,B9,0.88 fold
3,B10,1.51 fold
4,B11,1.08 fold
5,B12,1.61 fold
6,B13,1.26 fold
7,B14,1.44 fold
8,B15,0.89 fold
9,B16,2.38 fold
10,B17,1.05 fold

# Biological target: T4, mouse FcγRIII extracellular domain, …
# Assay: SPR Biacore T200, KD ratio, template MB476
# Description: as §3, §1, §2
row,Binder,relative mFcγRIII-binding activity (template = 1)
1,B8,1 fold
2,B9,1.25 fold
3,B10,2.74 fold
4,B11,2.24 fold
5,B12,12.8 fold
6,B13,2.35 fold
7,B14,5.52 fold
8,B15,3.23 fold
9,B16,3.04 fold
10,B17,2.09 fold

# Source: US20150203577A1 (Chugai, published 2015)
